B2: human ZNRF3 (residues 56-267, ECD-TMD) (domain or fragment, UniProt Q9ULT6 56-267, looked up)
chain: KETAFVEVVLFESSPSGDYTTYTTGLTGRFSRAGATLSAEGEIVQMHPLGLCNNNDEEDLYEYGWVGVVKLEQPELDPKPCLTVLGKAKRAVQRGATAVIFDVSENPEAIDQLNQGSEDPLKRPVVYVKGADAIKLMNIVNKQKVARARIQHRPPRQPTEYFDMGIFLAFFVVVSLVCLILLVKIKLKQRRSQNSMNRLAVQALEKMETRKF
notes: human ZNRF3, residues 56-267 (ECD-TMD), UniProt Q9ULT6; Cloned with the rabbit immunoglobulin heavy chain V signal peptide at the N-terminus in place of its own; no tag is named for this construct; also called Zinc and Ring Finger 3

Tests used:
[1] = target: human ZNRF3 (residues 56-267, ECD-TMD) (human) (UniProt Q9ULT6)
[2] = target: T1, human LGR4 (residues 1-822), ECD and TMD, expressed in ExpiSf9 cells (human, UniProt Q9BXB1 25-822); test: cryo-EM structure; individually purified LGR4 and RSPO2 mixed at a 1:2 ratio for 3 hours at 4 °C, complex isolated by SEC (25 mM HEPES-NaOH pH 7.5, 0.15 M NaCl, 0.01% GDN); overall resolution 4.0 Å; details: both partners purified
T1 construct: signal peptide in the construct; human LGR4, residues 1-822 (ECD and TMD, without the ICD), UniProt Q9BXB1; no cleavage is described; also called Leucine-rich repeat-containing G protein-coupled receptor 4; apo LGR4; source: ExpiSf9 (baculovirus), membrane fraction solubilised in LMNG/CHS, purified (Ni-NTA, SEC)

[3] = target: B2; test: cryo-EM structure; LGR4, RSPO2 and ZNRF3 co-expressed in Expi293F, complex solubilised in LMNG/CHS and purified by anti-DYKDDDDK resin (FLAG on LGR4) and SEC in 0.01% GDN; two complexes in one sample, 1:1:2 (3.2 Å) and 2:2:2 (3.5 Å); details: both partners purified
[4] = target: T2, human LGR4 (residues 1-822), ECD and TMD, expressed in Expi293F cells (human, UniProt Q9BXB1 25-822); test: as above; details: both partners purified
T2 construct: signal peptide in the construct; human LGR4, residues 1-822 (ECD and TMD), UniProt Q9BXB1; no cleavage is described. pEZT-BM vector; not shown: FLAG, C-terminal, kept

[5] = target: the molecule itself; test: as above

## full-length human LGR4 (CD4 TMD): TMD (7-TM, aa526-822) replaced with that of CD4 (1-TM) (from UniProt Q9BXB1 25-525; Q9BXB1 823-951) (receptor)
[1]
  RSPO2-induced TOPFlash Wnt/β-catenin reporter activity in HEK293T cells (siRNA against LGR4 and LGR5; 5% Wnt3a-conditioned medium, 3 ng/mL RSPO2), against wild-type LGR4: 50 % reduction

B1: human RSPO2 (residues 20-143, Fu1-2 domains) (ligand, UniProt Q6UXX9 20-143, looked up)
chain: HCQGNRWRRSKRASYVSNPICKGCLSCSKDNGCSRCQQKLFFFLRREGMRQYGECLHSCPSGYYGHRAPDMNRCARCRIENCDSCFSKDFCTKCKVGFYLHRGRCFDECPDGFAPLEETMECVE
notes: human RSPO2, Fu1-2 domains, UniProt Q6UXX9; no cleavage is described; Codon-optimised synthetic DNA in pEZT-BM; also called R-spondin 2; source: Expi293F, secreted into the medium, purified (Ni-NTA, SEC); also co-transfected in Expi293F with LGR4 and ZNRF3 and co-purified with them
[2]
  stoichiometry N: 1
[3]
  binding result: binds

## B2
[4]
  binding result: binds
[5]
  stoichiometry N: 2
